These results are taken from patent US20210269771A1 (RAMOT AT TEL AVIV UNIVERSITY, published 2021).

Test [1] concerns the target T1, gp120 antigen of the YU2.DG HIV strain, His-tagged (HIV-1 strain YU2.DG, UniProt P35961 32-498).
T1 construct: domain: gp120; also called gp120-YU2.DG; gp120-YU2
Nature of the test: flow cytometry on engineered primary human and murine B cells. On the technique in general: Flow cytometry measures light scatter and fluorescence of single cells or particles in a stream.

Test [2] addresses T1, gp120 antigen of the YU2.DG HIV strain, …. Nature of the test: ELISA (FIG. 15A).
Method: Enzyme Linked Immunosorbent assay. […] Plates were washed with PBST and blocked for two hours with 5% BSA in PBST, washed again and detection antibodies, anti-mouse IgA(abcam) or anti-mouse IgG or anti-mouse IgG1 or anti-mouse IgM (Jackson ImmunoResearch) were provided for an additional incubation of two hours at 2 μg/ml in PBST. Before detection with QuantaBlu (ThermoFisher) according to manufacturer protocols, plates were washed for an additional round. Detection was done in a Synergy M1 Plate reader (Biotek). The concentration of antigen specific antibodies was determined by reference to the dilution factor of the standard curve.

B1: 3BNC117 expressed as a membranal B cell receptor (BCR) on engineered B cells (antibody, V domains shown)
VH: QVQLLQSGAAVTKPGASVRVSCEASGYNIRDYFIHWWRQAPGQGLQWVGWINPKTGQPNNPRQFQGRVSLTRHASWDFDTFSFYMDLKALRSDDTAVYFCARQRSDYWDFDVWGSGTQVTVSS
VL: DIQMTQSPSSLSASVGDTVTITCQANGYLNWYQQRRGKAPKLLIYDGSKLERGVPSRFSGRRWGQEYNLTINNLQPEDIATYFCQVYEFVVPGTRLDLK
notes: also called 3BNC117 BCR; ADN171
Regarding B1, in test [1], the binding result is “binds”.

B2: 3BNC117 antibody, recombinant, expressed in Expi293F cells and purified (antibody, V domains shown)
VH: QVQLLQSGAAVTKPGASVRVSCEASGYNIRDYFIHWWRQAPGQGLQWVGWINPKTGQPNNPRQFQGRVSLTRHASWDFDTFSFYMDLKALRSDDTAVYFCARQRSDYWDFDVWGSGTQVTVSS
VL: DIQMTQSPSSLSASVGDTVTITCQANGYLNWYQQRRGKAPKLLIYDGSKLERGVPSRFSGRRWGQEYNLTINNLQPEDIATYFCQVYEFVVPGTRLDLK
notes: also called pADN210 (light chain) / pADN211 (heavy chain)
On to B2, for which, in test [2], the binding result is given as “binds”.
